Assay results: PMC8476121 (2021)

Target: NB88
Assay: SPR

B1: CaSR ECD (extracellular domain of human calcium-sensing receptor) (domain or fragment)
chain: YGPDQRAQKKGDIILGGLFPIHFGVAAKDQDLKSRPESVECIRYNFRGFRWLQAMIFAIEEINSSPALLPNLTLGYRIFDTCNTVSKALEATLSFVAQNKIDSLNLDEFCNCSEHIPSTIAVVGATGSGVSTAVANLLGLFYIPQVSYASSSRLLSNKNQFKSFLRTIPNDEHQATAMADIIEYFRWNWVGTIAADDDYGRPGIEKFREEAEERDICIDFSELISQYSDEEEIQHVVEVIQNSTAKVIVVFSSGPDLEPLIKEIVRRNITGKIWLASEAWASSSLIAMPQYFHVVGGTIGFALKAGQIPGFREFLKKVHPRKSVHNGFAKEFWEETFNCHLQEGAKGPLPVDTFLRGHEESGDRFSNSSTAFRPLCTGDENISSVETPYIDYTHLRISYNVYLAVYSIAHALQDIYTCLPGRGLFTNGSCADIKKVEAWQVLKHLRHLNFTNNMGEQVTFDECGDLVGNYSIINWHLSPEDGSIVFKEVGYYNVYAKKGERLFINEEKILWSGFSREVPFSNCSRDCLAGTRKGIIEGEPTCCFECVECPDGEYSDETDASACNKCPDDFWSNENHTSCIAKEIEFLS
- Kd: 3.9 nM
